Assay [1] has as its target T1, human ALPPL2 (alkaline phosphatase, germ cell type) expressed on the surface of CHO cells (human, UniProt P10696 20-503). Put plainly: cell-based or functional assay.
Assay [2] deals with T2, human ALPI (intestinal alkaline phosphatase) expressed on the surface of CHO cells (human, UniProt P09923 20-503).
T2 sequence (looked up): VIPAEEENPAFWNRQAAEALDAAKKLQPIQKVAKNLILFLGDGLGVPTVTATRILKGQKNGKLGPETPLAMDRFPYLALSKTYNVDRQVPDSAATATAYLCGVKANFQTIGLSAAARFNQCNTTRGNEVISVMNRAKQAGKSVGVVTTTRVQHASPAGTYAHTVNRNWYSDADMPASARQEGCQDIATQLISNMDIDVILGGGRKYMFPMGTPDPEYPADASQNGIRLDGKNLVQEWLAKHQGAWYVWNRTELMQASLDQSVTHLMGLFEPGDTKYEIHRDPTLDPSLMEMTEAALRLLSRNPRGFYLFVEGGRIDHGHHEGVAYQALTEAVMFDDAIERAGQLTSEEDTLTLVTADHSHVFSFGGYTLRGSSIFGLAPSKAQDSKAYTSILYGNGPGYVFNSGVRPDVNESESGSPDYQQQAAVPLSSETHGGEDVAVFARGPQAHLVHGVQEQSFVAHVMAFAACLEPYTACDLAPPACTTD
Put plainly: cell-based or functional assay.

The target of assay [3] is T3, human ALPL (tissue non-specific alkaline phosphatase) expressed on the surface of CHO cells (human, UniProt P05186 18-501).
T3 sequence (looked up): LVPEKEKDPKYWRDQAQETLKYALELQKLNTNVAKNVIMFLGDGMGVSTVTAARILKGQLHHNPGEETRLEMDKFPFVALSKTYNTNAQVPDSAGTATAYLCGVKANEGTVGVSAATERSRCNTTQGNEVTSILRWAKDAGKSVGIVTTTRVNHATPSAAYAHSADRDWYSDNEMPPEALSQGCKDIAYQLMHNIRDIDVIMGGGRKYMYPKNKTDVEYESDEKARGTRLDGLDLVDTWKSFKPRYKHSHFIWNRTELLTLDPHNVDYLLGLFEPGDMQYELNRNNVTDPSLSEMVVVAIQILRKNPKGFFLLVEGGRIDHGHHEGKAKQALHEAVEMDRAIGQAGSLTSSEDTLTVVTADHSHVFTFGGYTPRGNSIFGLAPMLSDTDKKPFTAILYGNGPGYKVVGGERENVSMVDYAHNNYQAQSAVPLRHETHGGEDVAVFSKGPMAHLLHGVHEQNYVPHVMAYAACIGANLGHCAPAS
Put plainly: cell-based or functional assay.

Assay [4] deals with T3, human ALPL (tissue non-specific …). Put plainly: flow cytometry, CHO-ALPL cells.
In assay [5] the target is T2, human ALPI (intestinal alkaline …). Put plainly: flow cytometry on CHO-ALPI cells. For orientation: In flow cytometry, cells or beads pass a laser one at a time.
In assay [6] the target is T4, human ALPP (alkaline phosphatase, placental type) expressed on the surface of CHO cells (human, UniProt P05187 23-506).
T4 construct: also called CHO-ALPP; hALPP
Put plainly: flow cytometry on CHO-ALPP cells, apparent KD (KDapp). How it is done:
(§1) Biparatopic VHH-hFc drug conjugates were assessed for human ALPP, ALPPL2, ALPI and ALPL cell-surface binding by flow cytometry. Binders were screened on CHO cells stably expressing human ALPP, ALPPL2, ALPI or ALPL.
(§2) Cell surface binding of test agents to hALPP isoforms was characterized in four CHO-ALPP isoform transfectant cell lines (CHO-ALPP, CHO-ALPPL2, CHO-ALPI and CHO-ALPL) and the resulting KDapp values determined. Adherent cells were detached from tissue culture flasks by incubating with 0.1% EDTA/PBS solution at 37° C. for […] or until cells detached easily. Cells were re-suspended in ice-cold PBS/2% FCS in 15 ml tubes and centrifuged at 1700 rpm for 5 mins at 4° C. Supernatant was removed and the cell pellet re-suspended in PBS/2% FCS. […] Cells were incubated with 100 μl of test agents at a range of concentrations, plus controls for 1 hr on ice. The sample plate was centrifuged at 1700 rpm for 5 mins at 4° C. The supernatant was removed, and a wash performed by re-suspending the cell pellets in 0.25 mL of ice-cold PBS/2% FCS using a multichannel pipette. Samples were again centrifuged at 1700 rpm for 5 min at 4° C. Supernatant was removed and two further washes performed as described. After the final wash and centrifugation step, excess liquid was removed by blotting the plate on tissue paper. Binding of VHH-hFc agents was determined by adding 100 μl of Fitc-anti-human Ab (ThermoFisher) and incubating for 30 mins on ice in the dark. Wash steps were performed as described previously. All cell pellets were finally re-suspended in 0.28 ml of ice-cold PBS/2% FCS and left on ice in the dark prior to analysis on a Merck-Millipore Guava EasyCyte HT or Thermo Fisher Attune N×T flow cytometer.

Assay [7] addresses T1, human ALPPL2 (alkaline phosphatase, …). Put plainly: flow cytometry on CHO-ALPPL2 cells, apparent KD (KDapp). The procedure:
as §1, §2

The next assay addresses T5, ALPP CysHis (human, UniProt P05187 23-502).
T5 construct: Whole entry: engineered human ALPP with an introduced cysteine and a His tag; homodimer; also called engineered ALPP homodimer; hALPP (ELISA)
Put plainly: ELISA, antigen coated. The source says: (§3) ELISA was used to test the binding and specificity of the VHHs. […] Anti-Llama—HRP antibody was used for detection.
Background: An ELISA detects its analyte on a solid surface through an enzyme-linked reagent.

Another assay concerns the target T6, ALPI His homodimer (human, UniProt P09923 20-503).
T6 construct: Whole entry with His tag; used in ELISA and BLI; also called hALPI
T6 sequence: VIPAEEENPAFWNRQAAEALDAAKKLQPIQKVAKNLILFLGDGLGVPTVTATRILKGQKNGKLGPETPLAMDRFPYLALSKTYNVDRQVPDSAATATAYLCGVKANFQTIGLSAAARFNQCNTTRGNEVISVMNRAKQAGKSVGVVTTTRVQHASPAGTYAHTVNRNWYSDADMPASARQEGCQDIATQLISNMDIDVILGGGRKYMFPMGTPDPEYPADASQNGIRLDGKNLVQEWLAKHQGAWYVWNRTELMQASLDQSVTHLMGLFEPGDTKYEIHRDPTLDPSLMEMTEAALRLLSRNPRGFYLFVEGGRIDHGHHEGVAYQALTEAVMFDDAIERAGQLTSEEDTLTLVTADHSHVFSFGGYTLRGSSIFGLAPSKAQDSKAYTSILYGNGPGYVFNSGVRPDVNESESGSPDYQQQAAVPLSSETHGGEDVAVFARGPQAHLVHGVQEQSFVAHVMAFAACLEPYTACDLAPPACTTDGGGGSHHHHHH
Put plainly: ELISA, antigen coated.
From the text: as §3

The target in assay [8] is T7, Human ALPL (leucine zipper) (human).
T7 construct: Whole entry: fused with a cysteine stabilised leucine zipper and His tag; also called hALPL
T7 chain: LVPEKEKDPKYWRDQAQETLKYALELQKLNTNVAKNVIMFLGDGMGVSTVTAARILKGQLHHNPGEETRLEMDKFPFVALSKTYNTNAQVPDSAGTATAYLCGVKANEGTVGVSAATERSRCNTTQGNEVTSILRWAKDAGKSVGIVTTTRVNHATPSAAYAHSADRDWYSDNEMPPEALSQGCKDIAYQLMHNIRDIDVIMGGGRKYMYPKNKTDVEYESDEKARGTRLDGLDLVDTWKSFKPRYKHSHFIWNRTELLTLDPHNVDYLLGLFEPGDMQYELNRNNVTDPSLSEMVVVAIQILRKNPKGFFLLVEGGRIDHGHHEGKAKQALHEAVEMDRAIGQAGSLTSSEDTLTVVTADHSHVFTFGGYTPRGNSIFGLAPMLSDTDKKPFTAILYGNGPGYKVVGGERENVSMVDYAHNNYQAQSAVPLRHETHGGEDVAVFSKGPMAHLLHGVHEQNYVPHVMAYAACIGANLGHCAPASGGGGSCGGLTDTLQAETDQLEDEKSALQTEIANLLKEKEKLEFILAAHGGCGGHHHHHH
Put plainly: BLI, antigen immobilised. How it is done:
Binding kinetics were determined using the Biolayer Interferometry (BLI) Octet K2 system (Sartorius). […] All assays were conducted in PBS with a plate temperature of 25° C. Ka (M⁻¹s⁻¹), Kd (s⁻¹) and KD (nM) values were determined using Octet Data Analysis High Throughput software (ForteBio) for Biolayer Interferometry.
In general terms: BLI is a label-free optical method that tracks binding on a fibre tip over time.

Data on 3 molecules can be found in patent US20260216242A1 (ALMAC DISCOVERY, published 2026).

Bounds are passed on as bounds.

T1 sequence (P10696 20-503): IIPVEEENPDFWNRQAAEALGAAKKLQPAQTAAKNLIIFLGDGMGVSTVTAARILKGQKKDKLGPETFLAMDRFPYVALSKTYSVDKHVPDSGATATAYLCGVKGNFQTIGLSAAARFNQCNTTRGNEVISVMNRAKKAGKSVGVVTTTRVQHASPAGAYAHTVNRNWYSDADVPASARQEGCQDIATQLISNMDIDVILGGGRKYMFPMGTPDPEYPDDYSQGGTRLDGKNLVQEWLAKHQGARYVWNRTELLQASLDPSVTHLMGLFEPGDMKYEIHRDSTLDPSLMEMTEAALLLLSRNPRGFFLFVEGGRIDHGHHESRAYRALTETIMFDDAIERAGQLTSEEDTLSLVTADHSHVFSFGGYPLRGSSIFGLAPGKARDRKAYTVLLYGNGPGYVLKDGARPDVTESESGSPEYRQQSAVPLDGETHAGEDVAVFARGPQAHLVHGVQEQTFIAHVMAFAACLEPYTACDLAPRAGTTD

B1: A06 E10-hFc (S239/442C T366Y/Y407T), [G4S]1 linker, MC-vc-PAB-MMAE conjugate, #711 (Fc fusion, DAR 4)
chain 1: QVHLVESGGGLVQAGGSLRLSCAASGRTFLSMGWFRQAPGKEREFVAAISWTGGSTGYADSVKGRFTISRESDKETMYLQMNSLKPEDTAVYYCAARGDVYYGGDDATRYKYWGQGTQVTVSSGGGGSEPKSSDKTHTCPPCPAPELLGGPCVFLFPPKPKDTLMISRTPEVTCVVVDVSHEDPEVKFNWYVDGVEVHNAKTKPREEQYNSTYRVVSVLTVLHQDWLNGKEYKCKVSNKALPAPIEKTISKAKGQPREPQVYTLPPSRDELTKNQVSLYCLVKGFYPSDIAVEWESNGQPENNYKTTPPVLDSDGSFFLYSKLTVDKSRWQQGNVFSCSVMHEALHNHYTQKSLCLSPGK
chain 2: QVQLVESGGGLVQAGGSLRLSCAVSGRALSDYNIGWFRQAPGKEREFVARKTWDGSSTRYDDSVKGRFTVSIEDAKNTAYLQMSSLKTEDTAVYYCAAGRYSRARGWEYDYWGQGTQVTVSSGGGGSEPKSSDKTHTCPPCPAPELLGGPCVFLFPPKPKDTLMISRTPEVTCVVVDVSHEDPEVKFNWYVDGVEVHNAKTKPREEQYNSTYRVVSVLTVLHQDWLNGKEYKCKVSNKALPAPIEKTISKAKGQPREPQVYTLPPSRDELTKNQVSLTCLVKGFYPSDIAVEWESNGQPENNYKTTPPVLDSDGSFFLTSKLTVDKSRWQQGNVFSCSVMHEALHNHYTQKSLCLSPGK
modifications: MC-vc-PAB-MMAE on Cys of S239C and S442C (EU numbering)
notes: Biparatopic knob-into-hole VHH-hFc heterodimer, DAR 4; The assignment of T366Y to the first named VHH and Y407T to the second follows the order of the name; No paragraph spells out this pair; also called A06-E10-hFc-vcPAB-MMAE; A06-E10 hFc-vc-MMAE
With B1, half-maximal inhibition in [1] (IC50 at 96 h, cell-killing of CHO-ALPPL2 cells) was put at 14.1 nM. For the same molecule, in [2], the “IC50 at 96 h, cell-killing of CHO-ALPI cells (estimated from data extrapolation)” value is around 673 nM. Moreover, in [3], the “IC50 at 96 h, cell-killing of CHO-ALPL cells (estimated from data extrapolation)” value was around 597 nM. In addition, the binding result in assay [4] was “no binding (tested: 350 nM (highest concentration))”. The “MFI on CHO-ALPI cells at 350 nM as percent of MFI on CHO-ALPP cells (KDapp not-determinable)” value in [5] was at most 1%. Also, the values for the Kd in assay [6] and in [7] were 13.4 nM and 7.6 nM, respectively.

B2: A06 F05-hFc (S239/442C T366Y/Y407T), [G4S]1 linker, MC-vc-PAB-MMAE conjugate, #712 (Fc fusion, DAR 4)
chain 1: QVHLVESGGGLVQAGGSLRLSCAASGRTFLSMGWFRQAPGKEREFVAAISWTGGSTGYADSVKGRFTISRESDKETMYLQMNSLKPEDTAVYYCAARGDVYYGGDDATRYKYWGQGTQVTVSSGGGGSEPKSSDKTHTCPPCPAPELLGGPCVFLFPPKPKDTLMISRTPEVTCVVVDVSHEDPEVKFNWYVDGVEVHNAKTKPREEQYNSTYRVVSVLTVLHQDWLNGKEYKCKVSNKALPAPIEKTISKAKGQPREPQVYTLPPSRDELTKNQVSLYCLVKGFYPSDIAVEWESNGQPENNYKTTPPVLDSDGSFFLYSKLTVDKSRWQQGNVFSCSVMHEALHNHYTQKSLCLSPGK
chain 2: QVQLVESGGGLVQAGGSLRLSCAASGRAFGDYNIGWFRQAPGKEREFVARRTWDGSSTRYDDSVKGRFTVSIDNAKNTAYLQMNSLKTEDTAVYYCAAGRYSRVRGWEYDYWGQGTQVTVSSGGGGSEPKSSDKTHTCPPCPAPELLGGPCVFLFPPKPKDTLMISRTPEVTCVVVDVSHEDPEVKFNWYVDGVEVHNAKTKPREEQYNSTYRVVSVLTVLHQDWLNGKEYKCKVSNKALPAPIEKTISKAKGQPREPQVYTLPPSRDELTKNQVSLTCLVKGFYPSDIAVEWESNGQPENNYKTTPPVLDSDGSFFLTSKLTVDKSRWQQGNVFSCSVMHEALHNHYTQKSLCLSPGK
modifications: MC-vc-PAB-MMAE on Cys of S239C and S442C (EU numbering)
notes: also called A06-F05-hFc-vcPAB-MMAE; A06-F05 hFc-vc-MMAE
Take B2: the half-inhibitory concentration (IC50) at 96 h, cell-killing of CHO-ALPPL2 cells in assay [1] stood at 14.8 nM. In assay [2], the half-maximal inhibitory concentration (IC50) at 96 h, cell-killing of CHO-ALPI cells (estimated from data extrapolation) is around 776 nM. The “IC50 at 96 h, cell-killing of CHO-ALPL cells (estimated from data extrapolation)” value in assay [3] is around 551 nM. The binding result in assay [4] is listed as “no binding (tested: 350 nM (highest concentration))”. For the same molecule, in [5], the “MFI on CHO-ALPI cells at 350 nM as percent of MFI on CHO-ALPP cells (KDapp not-determinable)” value is at most 1%. The Kd was determined as 10.6 nM in assay [6] and 5.7 nM in [7].

B3: E12 (VHH, not shown: small tags and cut ends)
VHH: QVQLVESGGGSVQAGGSLRLSCAASGPSISNFAMGWFRQAPGKEREFVAGISWGGGRTNYLDSVKGRFTISRDNAKNMVHLQMNSLKPEDTTVYYCAGRYGRGRDVEYEYDYWGQGTQVTVSS
For the molecule B3, the binding result with ALPP CysHis was “binds”; with ALPI His homodimer, “no binding (tested: 500 ng VHH)”; in [8], “no binding”.

Broadly, the IC50 is the concentration that gives 50% inhibition.
